Assay results as given in paper PMC10771490, “The structure of a tetrameric septin complex reveals a hydrophobic element essential for NC-interface integrity” (Communications Biology, 2024).

What was measured:
Shs1_(G21-S339) = molecular target: T1, Shs1_(G21-S339) (Saccharomyces cerevisiae, UniProt Q07657 21-339); assay: crystal structure; coexpressed tetrameric complex loaded with GTP before crystallization; sitting-drop vapor diffusion, 20% PEG 5000, 300 mM ammoniumsulfate, 100 mM Bis-Tris pH 6.5, 20 °C; 3.24 Å, space group C 1 2 1, a tetramer in the asymmetric unit; conditions: both partners purified
T1 construct: Shs1, septin of Saccharomyces cerevisiae, residues G21-S339 (unstructured extensions removed); The complex was purified on a HisTrap column; source: E. coli BL21DE3, coexpressed with the other subunits, purified (HisTrap IMAC, anion exchange, SEC)
T1 sequence (looked up): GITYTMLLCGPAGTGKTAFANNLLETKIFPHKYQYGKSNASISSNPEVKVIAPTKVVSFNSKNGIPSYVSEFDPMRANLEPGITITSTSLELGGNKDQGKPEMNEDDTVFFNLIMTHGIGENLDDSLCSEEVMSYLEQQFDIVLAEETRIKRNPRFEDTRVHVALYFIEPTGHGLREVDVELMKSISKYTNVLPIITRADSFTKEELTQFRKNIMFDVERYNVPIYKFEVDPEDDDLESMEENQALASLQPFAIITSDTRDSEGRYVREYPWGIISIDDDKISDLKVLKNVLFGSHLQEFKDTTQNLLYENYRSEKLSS

Cdc3_(Q81-A410) [1] = molecular target: T2, Cdc3_(Q81-A410) (Saccharomyces cerevisiae, UniProt P32457 81-410); assay: as above; conditions: both partners purified
T2 construct: Cdc3, septin of Saccharomyces cerevisiae, residues Q81-A410 (extensions removed); source: E. coli BL21DE3, coexpressed with the other subunits, purified (HisTrap IMAC, anion exchange, SEC)
T2 sequence (looked up): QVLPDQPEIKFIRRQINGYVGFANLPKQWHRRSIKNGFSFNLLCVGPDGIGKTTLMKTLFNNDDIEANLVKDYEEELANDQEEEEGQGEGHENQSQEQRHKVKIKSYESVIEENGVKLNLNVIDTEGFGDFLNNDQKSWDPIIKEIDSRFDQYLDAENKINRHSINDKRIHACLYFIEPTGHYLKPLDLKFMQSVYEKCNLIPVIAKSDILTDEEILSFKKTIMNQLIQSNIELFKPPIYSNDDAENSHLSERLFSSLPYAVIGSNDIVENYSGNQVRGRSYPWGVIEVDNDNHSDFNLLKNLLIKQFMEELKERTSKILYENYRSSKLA

[2] = molecular target: the molecule itself; assay: SEC; analytical SEC of yeast septin complexes purified by IMAC and IEX; Superose 6, 25 mM Tris pH 8.0, 300 mM NaCl; elution compared with tetramer and octamer references
[3] = molecular target: the molecule itself; assay: cross-linking; engineered cysteine pairs across the Cdc10-Cdc10 NC-interface; complexes expressed in E. coli T7-SHuffle Express, purified by IMAC in non-reducing buffers, SDS-PAGE with and without β-Mercaptoethanol, Western blot against the S-tag on Cdc10
Cdc3_(Q81-A410) [4] = molecular target: T2, Cdc3_(Q81-A410); assay: SEC; analytical SEC of yeast septin complexes purified by IMAC and IEX; Superose 6, 25 mM Tris pH 8.0, 300 mM NaCl; elution compared with tetramer and octamer references; conditions: both partners purified

Binder	binding result [2]	binding result [3]	further results
Cdc12_(M1-G314) (domain or fragment, Saccharomyces cerevisiae, UniProt P32468 1-314, looked up, Cdc12, septin of Saccharomyces cerevisiae, residues M1-G314 (C-terminal extension removed); source: E. coli BL21DE3, coexpressed with the other subunits, purified (HisTrap IMAC, anion exchange, SEC)) MSAATATAAPVPPPVGISNLPNQRYKIVNEEGGTFTVMLCGESGLGKTTFINTLFQTVLKRADGQQHRQEPIRKTVEIDITRALLEEKHFELRVNVIDTPGFGDNVNNNKAWQPLVDFIDDQHDSYMRQEQQPYRTKKFDLRVHAVLYFIRPTGHGLKPIDIETMKRLSTRANLIPVIAKADTLTAQELQQFKSRIRQVIEAQEIRIFTPPLDADSKEDAKSGSNPDSAAVEHARQLIEAMPFAIVGSEKKFDNGQGTQVVARKYPWGLVEIENDSHCDFRKLRALLLRTYLLDLISTTQEMHYETYRRLRLEG	–	–	binding result (Shs1_(G21-S339)): binds; binding result (Cdc3_(Q81-A410) [1]): binds
Cdc10_(L27A) (natural protein, Saccharomyces cerevisiae, UniProt P25342 1-322, looked up, Cdc10, septin of Saccharomyces cerevisiae, hydrophobic crest mutant (position 15 of the motif); Compared with the wildtype octamer; source: E. coli BL21DE3, co-expressed as septin complex, purified (IMAC, IEX)) MDPLSSVQPASYVGFDTITNQIEHRLAKKGFQFNIMVVGQSGLGKSTLINTLFASHLIDSATGDDISALPVTKTTEMKISTHTLVEDRVRLNINVIDTPGFGDFIDNSKAWEPIVKYIKEQHSQYLRKELTAQRERFITDTRVHAILYFLQPNGKELSRLDVEALKRLTEIANVIPVIGKSDTLTLDERTEFRELIQNEFEKYNFKIYPYDSEELTDEELELNRSVRSIIPFAVVGSENEIEINGETFRGRKTRWSAINVEDINQCDFVYLREFLIRTHLQDLIETTSYIHYEGFRARQLIALKENANSRSSAHMSSNAIQR	binds	–	–
Cdc10 L27A in the disulfide bridge mutant A132C/L300C (natural protein, Saccharomyces cerevisiae, UniProt P25342 1-322, looked up, Cdc10, septin of Saccharomyces cerevisiae, disulfide bridge mutant A132C/L300C with L27A; also called L27A (disulfide mutant); source: E. coli T7-SHuffle Express, co-expressed with the other full-length subunits, purified (IMAC, non-reducing buffers)) MDPLSSVQPASYVGFDTITNQIEHRLAKKGFQFNIMVVGQSGLGKSTLINTLFASHLIDSATGDDISALPVTKTTEMKISTHTLVEDRVRLNINVIDTPGFGDFIDNSKAWEPIVKYIKEQHSQYLRKELTCQRERFITDTRVHAILYFLQPNGKELSRLDVEALKRLTEIANVIPVIGKSDTLTLDERTEFRELIQNEFEKYNFKIYPYDSEELTDEELELNRSVRSIIPFAVVGSENEIEINGETFRGRKTRWSAINVEDINQCDFVYLREFLIRTHLQDLIETTSYIHYEGFRARQCIALKENANSRSSAHMSSNAIQR	–	binds	–
Cdc10_(M1-R322) (natural protein, Saccharomyces cerevisiae, UniProt P25342 1-322, looked up, Cdc10, septin of Saccharomyces cerevisiae, residues M1-R322; kept apart from m6 because it stood with truncated partner subunits; also called Cdc10 with the α0-helix added, in the otherwise truncated complex; source: E. coli BL21DE3, coexpressed with Shs1_(G21-S339), Cdc12_(M1-G314) and Cdc3_(Q81-A410), purified (IMAC, IEX)) MDPLSSVQPASYVGFDTITNQIEHRLLKKGFQFNIMVVGQSGLGKSTLINTLFASHLIDSATGDDISALPVTKTTEMKISTHTLVEDRVRLNINVIDTPGFGDFIDNSKAWEPIVKYIKEQHSQYLRKELTAQRERFITDTRVHAILYFLQPNGKELSRLDVEALKRLTEIANVIPVIGKSDTLTLDERTEFRELIQNEFEKYNFKIYPYDSEELTDEELELNRSVRSIIPFAVVGSENEIEINGETFRGRKTRWSAINVEDINQCDFVYLREFLIRTHLQDLIETTSYIHYEGFRARQLIALKENANSRSSAHMSSNAIQR	binds	–	binding result (Cdc3_(Q81-A410) [4]): binds
Cdc10 Q21C/Q281C (disulfide bridge mutant) (natural protein, Saccharomyces cerevisiae, UniProt P25342 1-322, looked up, source: E. coli T7-SHuffle Express, co-expressed with the other full-length subunits, purified (IMAC, non-reducing buffers)) MDPLSSVQPASYVGFDTITNCIEHRLLKKGFQFNIMVVGQSGLGKSTLINTLFASHLIDSATGDDISALPVTKTTEMKISTHTLVEDRVRLNINVIDTPGFGDFIDNSKAWEPIVKYIKEQHSQYLRKELTAQRERFITDTRVHAILYFLQPNGKELSRLDVEALKRLTEIANVIPVIGKSDTLTLDERTEFRELIQNEFEKYNFKIYPYDSEELTDEELELNRSVRSIIPFAVVGSENEIEINGETFRGRKTRWSAINVEDINQCDFVYLREFLIRTHLCDLIETTSYIHYEGFRARQLIALKENANSRSSAHMSSNAIQR	–	binds	–
Cdc10 A132C/L300C (disulfide bridge mutant) (natural protein, Saccharomyces cerevisiae, UniProt P25342 1-322, looked up, also called Cdc10^A_(A132)-Cdc10^B_(L300); source: E. coli T7-SHuffle Express, co-expressed with the other full-length subunits, purified (IMAC, non-reducing buffers)) MDPLSSVQPASYVGFDTITNQIEHRLLKKGFQFNIMVVGQSGLGKSTLINTLFASHLIDSATGDDISALPVTKTTEMKISTHTLVEDRVRLNINVIDTPGFGDFIDNSKAWEPIVKYIKEQHSQYLRKELTCQRERFITDTRVHAILYFLQPNGKELSRLDVEALKRLTEIANVIPVIGKSDTLTLDERTEFRELIQNEFEKYNFKIYPYDSEELTDEELELNRSVRSIIPFAVVGSENEIEINGETFRGRKTRWSAINVEDINQCDFVYLREFLIRTHLQDLIETTSYIHYEGFRARQCIALKENANSRSSAHMSSNAIQR	–	binds	–
Cdc10 T19C/E23C (disulfide bridge mutant) (natural protein, Saccharomyces cerevisiae, UniProt P25342 1-322, looked up, Cdc10, septin of Saccharomyces cerevisiae, native, non-truncated, with two cysteines for a disulfide between the two α0-helices; also called T19C and E23C; source: E. coli T7-SHuffle Express, co-expressed with the other full-length subunits, purified (IMAC, non-reducing buffers)) MDPLSSVQPASYVGFDTICNQICHRLLKKGFQFNIMVVGQSGLGKSTLINTLFASHLIDSATGDDISALPVTKTTEMKISTHTLVEDRVRLNINVIDTPGFGDFIDNSKAWEPIVKYIKEQHSQYLRKELTAQRERFITDTRVHAILYFLQPNGKELSRLDVEALKRLTEIANVIPVIGKSDTLTLDERTEFRELIQNEFEKYNFKIYPYDSEELTDEELELNRSVRSIIPFAVVGSENEIEINGETFRGRKTRWSAINVEDINQCDFVYLREFLIRTHLQDLIETTSYIHYEGFRARQLIALKENANSRSSAHMSSNAIQR	–	binds	–
Cdc10 L26A in the disulfide bridge mutant A132C/L300C (natural protein, Saccharomyces cerevisiae, UniProt P25342 1-322, looked up, Cdc10, septin of Saccharomyces cerevisiae, disulfide bridge mutant A132C/L300C with L26A; also called L26A (disulfide mutant); source: E. coli T7-SHuffle Express, co-expressed with the other full-length subunits, purified (IMAC, non-reducing buffers)) MDPLSSVQPASYVGFDTITNQIEHRALKKGFQFNIMVVGQSGLGKSTLINTLFASHLIDSATGDDISALPVTKTTEMKISTHTLVEDRVRLNINVIDTPGFGDFIDNSKAWEPIVKYIKEQHSQYLRKELTCQRERFITDTRVHAILYFLQPNGKELSRLDVEALKRLTEIANVIPVIGKSDTLTLDERTEFRELIQNEFEKYNFKIYPYDSEELTDEELELNRSVRSIIPFAVVGSENEIEINGETFRGRKTRWSAINVEDINQCDFVYLREFLIRTHLQDLIETTSYIHYEGFRARQCIALKENANSRSSAHMSSNAIQR	–	binds	–
Cdc10, native, non-truncated (wild type) (natural protein, Saccharomyces cerevisiae, UniProt P25342 1-322, looked up, Cdc10, septin of Saccharomyces cerevisiae, native, non-truncated; An S-tag is named on Cdc10 only for the Western blots of the disulfide mutants; also called Cdc10 of the untruncated octamer; source: E. coli BL21DE3, co-expressed with the other full-length subunits, purified (IMAC, IEX)) MDPLSSVQPASYVGFDTITNQIEHRLLKKGFQFNIMVVGQSGLGKSTLINTLFASHLIDSATGDDISALPVTKTTEMKISTHTLVEDRVRLNINVIDTPGFGDFIDNSKAWEPIVKYIKEQHSQYLRKELTAQRERFITDTRVHAILYFLQPNGKELSRLDVEALKRLTEIANVIPVIGKSDTLTLDERTEFRELIQNEFEKYNFKIYPYDSEELTDEELELNRSVRSIIPFAVVGSENEIEINGETFRGRKTRWSAINVEDINQCDFVYLREFLIRTHLQDLIETTSYIHYEGFRARQLIALKENANSRSSAHMSSNAIQR	binds	–	–
Cdc10 L26A (natural protein, Saccharomyces cerevisiae, UniProt P25342 1-322, looked up, Cdc10, septin of Saccharomyces cerevisiae, mutant of the non-conserved position 14 of the hydrophobic crest motif; Compared with the wildtype octamer; source: E. coli BL21DE3, co-expressed as septin complex, purified (IMAC, IEX)) MDPLSSVQPASYVGFDTITNQIEHRALKKGFQFNIMVVGQSGLGKSTLINTLFASHLIDSATGDDISALPVTKTTEMKISTHTLVEDRVRLNINVIDTPGFGDFIDNSKAWEPIVKYIKEQHSQYLRKELTAQRERFITDTRVHAILYFLQPNGKELSRLDVEALKRLTEIANVIPVIGKSDTLTLDERTEFRELIQNEFEKYNFKIYPYDSEELTDEELELNRSVRSIIPFAVVGSENEIEINGETFRGRKTRWSAINVEDINQCDFVYLREFLIRTHLQDLIETTSYIHYEGFRARQLIALKENANSRSSAHMSSNAIQR	binds	–	–
Cdc10_(G30-R322) (domain or fragment, Saccharomyces cerevisiae, UniProt P25342 30-322, looked up, Cdc10, septin of Saccharomyces cerevisiae, residues G30-R322 (lacks the α0-helix); also called Cdc10 lacking the α0-helix; Cdc10 of the truncated tetramer; source: E. coli BL21DE3, coexpressed with the other subunits, purified (HisTrap IMAC, anion exchange, SEC)) GFQFNIMVVGQSGLGKSTLINTLFASHLIDSATGDDISALPVTKTTEMKISTHTLVEDRVRLNINVIDTPGFGDFIDNSKAWEPIVKYIKEQHSQYLRKELTAQRERFITDTRVHAILYFLQPNGKELSRLDVEALKRLTEIANVIPVIGKSDTLTLDERTEFRELIQNEFEKYNFKIYPYDSEELTDEELELNRSVRSIIPFAVVGSENEIEINGETFRGRKTRWSAINVEDINQCDFVYLREFLIRTHLQDLIETTSYIHYEGFRARQLIALKENANSRSSAHMSSNAIQR	–	–	binding result (Cdc3_(Q81-A410) [1]): binds
